In PMC12715529, “Functional D- and L‑Naphthalenediimide-Peptides: Microwave-Driven Synthesis, Supramolecular Aggregation, and Multiphoton Fluorescence Lifetime Imaging Microscopy in Living Cells” (ACS Bio & Med Chem Au, 2025):

Key:
PC-3 cells = conditions: 48 h
Method: After splitting the cells, cells (3 × 10^3 cells per well) were seeded on a sterile 96-well plate and incubated for 48 h to let the cells adhere to the plates. The compound of interest was subsequently loaded at different concentrations into the wells and incubated for a further 48 h. The concentrations used ranged between 250 μM or 0.01 mg/mL and 1 nM or 1 ng/mL (1% DMSO with compound, 99% RPMI (10% FCS) for PC-3. Subsequently, the medium from the plates was carefully aspirated so as not to disturb the colonies, and the plates were gently washed with PBS. Next, a mixture of methanol/PBS (1:1) was added in a sufficient volume to cover the colonies, and it was left for 15 min. After this time, it was removed, and 100% methanol was added for a further 15 min. The methanol was then removed, and 0.5% crystal violet solution (in 20% methanol and 80% water) was added and left to allow sufficient staining. The crystal violet solution was removed by carefully rinsing the cell plates with an indirect flow of tap water. The plates were inverted and left on the bench at room temperature to dry the water. Methanol (200 μL) was added to each well, and the plate was incubated with its lid on for 20 min at room temperature on a bench rocker with a frequency of 20 oscillations per minute. The 96-well plates were then read with an ELISA plate reader, Molecular Devices Versa Max (BN02877). […]

[1] = test system: cancerous cell lines (PC-3); test: MTT and crystal violet cell viability assays; format: cell-based; conditions: at concentrations used for imaging, over 72 h of observations
Method: (§1) Subsequently, cells were washed three times with PBS, and 3-(4,5-dimethylthiazol-2-yl)-2,5- diphenyltetrazolium bromide (MTT) was added (0.5 mg/mL in serum-free medium (SFM)), followed by a 2 h incubation. After aspiration to remove the serum-free medium, 100 μL of DMSO was added to solubilize the precipitated formazan species, and 96-well plates were read by an ELISA plate reader, Molecular Devices Versa Max (BN02877). The absorption wavelength was 570 nm, and a 690 nm wavelength was used as a reference.

[2] = MTT and crystal violet cell viability assays; format: cell-based; conditions: human, PC-3 cells, MTT and crystal violet assays, up to 72 h observation, read-out: IC50 (cytotoxicity)
Method: as §1

[3] = Two-photon TCSPC point decays in solution (aggregation behaviour); format: physicochemical; conditions: for a1 (amplitude of τ1) / a2 (amplitude of τ2) / τ2 (long-lifetime component) / τ1 (short-lifetime component): two-photon TCSPC 910 nm
Text: Prior to the cellular studies by FLIM, lifetime distribution decays of probes 3 (both enantiomers), 4 (both enantiomers), and L -6 were studied by TCSPC in different concentrations and solvent systems. […] The main fluorescence lifetime parameters obtained by TCSPC in the solution phase are summarized in Table , and further details are given in Figures S105–S133 and Tables S2–S4. The goodness of fit of the data points obtained is represented by the Chi–square parameter, χ^2; τ1 is the short-lifetime component; τ2 is the long-lifetime component; and the parameters a1 and a2 represent the amplitude of the components.

[4] = FE-SEM and Airyscan confocal imaging of dried films (aggregation morphology); format: physicochemical; conditions: dried powder or freeze-dried 1 mg/mL MeCN/H2O (1:1) or DMSO solutions
Method: To further investigate the aggregation behavior, we examined the surface morphologies of the isolated conjugates in the solid state at the micrometer scale using field emission scanning electron microscopy (FE-SEM). This analysis aimed to determine whether the aggregation properties of these peptide-based compounds influence their fluorescence emission. The FE SEM micrographs of the D- and L-enantiomers of 3 and 4 were recorded from dried powder after purification or after freeze-drying of 1 mg/mL solutions deposited in either MeCN/H2O (1:1) or DMSO solutions. […] Confocal laser scanning fluorescence microscopy was performed for the thin films deposited on glass-bottomed borosilicate slides using imaging Petri dishes. Micrographs were acquired using Airyscan detection for L -3 (a1–e1), L -4 (a2–e2), D -3 (a3–e3), D -4 (a4–d4), and L -6 (a5–d5) where these images were recorded following overnight freeze-drying of films deposited from DMSO (Figures and S67). […] This is consistent with our observations from solution excitation–emission maps (Figures and S57–S63) and further points to the overall ability of these aggregates to show fluorescence emission due to possible stacking and excited-state electron and energy dynamics. […] Specifically, emission was detected in the blue (λem = 420–480 nm), green (λem = 495–550 nm), and red (λem = 555–620 nm) channels. […]

[5] = target: T1, GRP receptors in PC-3 cells (Homo sapiens, UniProt P30550); test: Blocking experiment with L-[7–13]BBN, confocal imaging; format: cell-based; conditions: PC-3 pre-incubated with 1 mM L-[7–13]BBN, 37 °C, 20 min, washed, then conjugate 20 min
T1 construct: This also supports the targeted uptake directed by the GRP receptors in PC-3 cells; endogenous in cells; host or cells: PC-3 cells (ATCC)
Method: Compound L -6 emits in the green and red channels (500–550 and 570–750 nm, respectively) when excited at 488 nm. […] In addition, the fluorescence emissions in vitro are stronger than the observed fluorescence emission in solution. […] This also supports the targeted uptake directed by the GRP receptors in PC-3 cells interplayed with BODIPY-driven cellular localization. To further probe this observation, a blocking experiment by confocal imaging was conducted (Figures S103–S104), whereby PC-3 cells were first incubated in the presence of a high concentration of L-[7–13]-BBN (1 mM) at 37 °C for 20 min. This peptide is only weakly fluorescent, and on this time scale (and up to 18 h of incubation time), confocal imaging cannot show distinguishable emission, to describe the uptake for L-[7,13]-BBN alone by this method (Figure S87). After the standard 20 min pretreatment time, the cells were washed with PBS and then the serum-free medium (SFM) was replaced. […] In the case of L-6, the observed maximum fluorescence intensity is distributed over the exterior of the cell, with points of aggregation visible around the membrane. […]
Figure S103. […] (D) A comparison of the mean fluorescence intensity estimated from confocal imaging experiments of the standard blocking assays in living PC-3 cells (Figure S103), under 20 min incubation, 37 °C, ex 488 nm. […]

[6] = DMSO, 0.01 mM, double-exponential fit, aggregation indicator

T1 sequence (P30550 whole entry): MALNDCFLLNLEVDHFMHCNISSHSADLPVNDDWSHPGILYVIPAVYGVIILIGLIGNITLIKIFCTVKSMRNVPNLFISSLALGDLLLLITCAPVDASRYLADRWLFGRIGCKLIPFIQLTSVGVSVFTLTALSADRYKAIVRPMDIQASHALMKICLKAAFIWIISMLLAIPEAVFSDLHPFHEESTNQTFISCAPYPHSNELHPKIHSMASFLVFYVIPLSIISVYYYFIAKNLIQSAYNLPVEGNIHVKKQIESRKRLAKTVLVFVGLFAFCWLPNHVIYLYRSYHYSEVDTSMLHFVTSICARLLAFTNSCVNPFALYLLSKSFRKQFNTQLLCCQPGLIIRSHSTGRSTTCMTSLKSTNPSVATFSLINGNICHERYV

CC(C)C[C@H](NC(=O)[C@H](Cc1c[nH]cn1)NC(=O)CNC(=O)[C@@H](NC(=O)[C@H](C)NC(=O)[C@H](Cc1c[nH]c2ccccc12)NC(=O)[C@H](CCC(N)=O)NC(=O)[C@H](Cc1ccc(I)cc1)N1C(=O)c2ccc3c4c(ccc(c24)C1=O)C(=O)N([C@@H](Cc1ccc(I)cc1)C(=O)ON1C(=O)CCC1=O)C3=O)C(C)C)C(N)=O [L-3]
IC50 (PC-3 cells): > 100 µM
cytotoxicity in words [1]: nontoxic
IC50 at 48 h [2]: > 100 µM
a1 (amplitude of τ1) ([3]; DMSO, 0.01 mM): 62%
a2 (amplitude of τ2) ([3]; DMSO, 0.01 mM): 38%
τ2 (long-lifetime component) ([3]; DMSO, 0.01 mM): 7.35 ns
τ1 (short-lifetime component) [3, 6]: 0.84 ns
a1 (amplitude of τ1) ([3]; DMSO, 0.1 mM): 62%
a2 (amplitude of τ2) ([3]; DMSO, 0.1 mM): 38%
τ1 (short-lifetime component) ([3]; DMSO, 0.1 mM): 0.57 ns
a1 (amplitude of τ1) ([3]; DMSO, 1 mM): 63%
a2 (amplitude of τ2) ([3]; DMSO, 1 mM): 37%
τ1 (short-lifetime component) ([3]; DMSO, 1 mM): 0.38 ns
τ2 (long-lifetime component) ([3]; DMSO, 1 mM): 2.54 ns
a1 (amplitude of τ1) ([3]; DMSO/H2O (1:1), 0.025 mM): 82%
a2 (amplitude of τ2) ([3]; DMSO/H2O (1:1), 0.025 mM): 18%
τ1 (short-lifetime component) ([3]; DMSO/H2O (1:1), 0.025 mM): 0.37 ns
τ2 (long-lifetime component) ([3]; DMSO/H2O (1:1), 0.025 mM): 10.01 ns
a1 (amplitude of τ1) ([3]; DMSO/H2O (1:1), 0.25 mM): 81%
a2 (amplitude of τ2) ([3]; DMSO/H2O (1:1), 0.25 mM): 19%
τ1 (short-lifetime component) ([3]; DMSO/H2O (1:1), 0.25 mM): 0.38 ns
τ2 (long-lifetime component) ([3]; DMSO/H2O (1:1), 0.25 mM): 9.87 ns
a1 (amplitude of τ1) ([3]; DMSO/H2O (1:1), 2.5 mM): 77%
a2 (amplitude of τ2) ([3]; DMSO/H2O (1:1), 2.5 mM): 23%
τ1 (short-lifetime component) ([3]; DMSO/H2O (1:1), 2.5 mM): 0.31 ns
τ2 (long-lifetime component) ([3]; DMSO/H2O (1:1), 2.5 mM): 3.45 ns

CC(C)C[C@H](NC(=O)[C@H](Cc1c[nH]cn1)NC(=O)CNC(=O)[C@@H](NC(=O)[C@H](C)NC(=O)[C@H](Cc1c[nH]c2ccccc12)NC(=O)[C@H](CCC(N)=O)NC(=O)[C@H](Cc1ccc(I)cc1)N1C(=O)c2ccc3c4c(ccc(c24)C1=O)C(=O)N([C@@H](Cc1ccc(I)cc1)C(=O)N[C@@H](CCC(N)=O)C(=O)N[C@@H](Cc1c[nH]c2ccccc12)C(=O)N[C@@H](C)C(=O)N[C@H](C(=O)NCC(=O)N[C@@H](Cc1c[nH]cn1)C(=O)N[C@@H](CC(C)C)C(N)=O)C(C)C)C3=O)C(C)C)C(N)=O [L-4]
IC50 (PC-3 cells): > 100 µM
cytotoxicity in words [1]: nontoxic
IC50 at 48 h [2]: > 100 µM
aggregate morphology [4]: granular and globular morphology
a1 (amplitude of τ1) ([3]; DMSO, 0.01 mM): 75%
a2 (amplitude of τ2) ([3]; DMSO, 0.01 mM): 25%
τ2 (long-lifetime component) ([3]; DMSO, 0.01 mM): 4.76 ns
τ1 (short-lifetime component) [3, 6]: 0.51 ns
a1 (amplitude of τ1) ([3]; DMSO, 0.1 mM): 79%
a2 (amplitude of τ2) ([3]; DMSO, 0.1 mM): 21%
τ1 (short-lifetime component) ([3]; DMSO, 0.1 mM): 0.49 ns
τ2 (long-lifetime component) ([3]; DMSO, 0.1 mM): 5.45 ns
a1 (amplitude of τ1) ([3]; DMSO, 1 mM): 77%
a2 (amplitude of τ2) ([3]; DMSO, 1 mM): 23%
τ1 (short-lifetime component) ([3]; DMSO, 1 mM): 0.48 ns
τ2 (long-lifetime component) ([3]; DMSO, 1 mM): 4.29 ns
a1 (amplitude of τ1) ([3]; DMSO/H2O (1:1), 0.025 mM): 84%
a2 (amplitude of τ2) ([3]; DMSO/H2O (1:1), 0.025 mM): 16%
τ1 (short-lifetime component) ([3]; DMSO/H2O (1:1), 0.025 mM): 0.48 ns
τ2 (long-lifetime component) ([3]; DMSO/H2O (1:1), 0.025 mM): 9.57 ns
a1 (amplitude of τ1) ([3]; DMSO/H2O (1:1), 0.25 mM): 83%
a2 (amplitude of τ2) ([3]; DMSO/H2O (1:1), 0.25 mM): 17%
τ1 (short-lifetime component) ([3]; DMSO/H2O (1:1), 0.25 mM): 0.40 ns
τ2 (long-lifetime component) ([3]; DMSO/H2O (1:1), 0.25 mM): 3.12 ns
a1 (amplitude of τ1) ([3]; DMSO/H2O (1:1), 2.5 mM): 86%
a2 (amplitude of τ2) ([3]; DMSO/H2O (1:1), 2.5 mM): 14%
τ1 (short-lifetime component) ([3]; DMSO/H2O (1:1), 2.5 mM): 0.26 ns
τ2 (long-lifetime component) ([3]; DMSO/H2O (1:1), 2.5 mM): 4.97 ns

CC1=CC(C)=[N+]2C1=C(c1ccc(C(=O)NCCN3C(=O)c4ccc5c6c(ccc(c46)C3=O)C(=O)N([C@@H](CCC(N)=O)C(=O)N[C@@H](Cc3c[nH]c4ccccc34)C(=O)N[C@@H](C)C(=O)N[C@H](C(=O)NCC(=O)N[C@@H](Cc3c[nH]cn3)C(=O)N[C@@H](CC(C)C)C(N)=O)C(C)C)C5=O)cc1)c1c(C)cc(C)n1[B-]2(F)F [L-6]
uptake after pre-blocking with L-[7–13]BBN [5]: significant decrease of the uptake efficiency in pretreated cells
uptake after pre-blocking with L-[7–13]BBN ([5]; listed as L -6): significantly lesser extent than in the nonblocked experiment
cytotoxicity in words [1]: nontoxic
IC50 at 48 h [2]: > 100 µM
a1 (amplitude of τ1) ([3]; DMSO, 0.01 mM): 68%
a2 (amplitude of τ2) ([3]; DMSO, 0.01 mM): 32%
τ2 (long-lifetime component) ([3]; DMSO, 0.01 mM): 3.34 ns
τ1 (short-lifetime component) [3, 6]: 0.14 ns
a1 (amplitude of τ1) ([3]; DMSO, 0.1 mM): 80%
a2 (amplitude of τ2) ([3]; DMSO, 0.1 mM): 20%
τ1 (short-lifetime component) ([3]; DMSO, 0.1 mM): 0.14 ns
τ2 (long-lifetime component) ([3]; DMSO, 0.1 mM): 2.64 ns
a1 (amplitude of τ1) ([3]; DMSO, 1 mM): 66%
a2 (amplitude of τ2) ([3]; DMSO, 1 mM): 34%
τ1 (short-lifetime component) ([3]; DMSO, 1 mM): 0.14 ns
τ2 (long-lifetime component) ([3]; DMSO, 1 mM): 1.67 ns
a1 (amplitude of τ1) ([3]; DMSO/H2O (1:1), 2.5 mM): 65%
a2 (amplitude of τ2) ([3]; DMSO/H2O (1:1), 2.5 mM): 35%
τ1 (short-lifetime component) ([3]; DMSO/H2O (1:1), 2.5 mM): 0.15 ns
τ2 (long-lifetime component) ([3]; DMSO/H2O (1:1), 2.5 mM): 2.25 ns
τ1 relative to BODIPY-linker precursor 5 ([3]; TCSPC in solution, assigned to self-aggregation): 10 fold lower
τ1 (approximate) ([3]; both DMSO and DMSO/H2O solutions, TCSPC): ~0.1 ns
